The text below walks through data of US20170291955A1 (AstraZeneca / MedImmune, published 2017).

Residue numbers refer to the chain shown, from its start.

Test [1] deals with T1, recombinant human HER2 extracellular domain protein (human, UniProt P04626 23-652). Put plainly: BIAcore KD of 39S against the reported KD of 1.39.1. (In general: Surface plasmon resonance follows binding to a sensor surface in real time, without labels.)
In test [2] the target is T1, recombinant human HER2 extracellular …. As to the kind of experiment: BIAcore (SPR), format not stated.
In test [3] the target is T2, KO_250-261 (human; mouse, UniProt P70424 273-284).
T2 construct: domain: counterpart of human amino acids 250-261
As to the kind of experiment: SPR (ProteOn XPR36), variant captured by anti-Her2 polyclonal antibody, 39S injected; apparent affinity. How it is done: (§1) The chimeric variant nomenclature denotes types of variants (KO/KI) and the number of domains swapped. […] The expression of the variants was monitored by anti-His polyclonal antibody using ProteOn™.
(§2) Standard amine coupling was used to immobilize an anti-human or mouse Her2 polyclonal antibody (R&D System) in 10 mM sodium acetate (pH 5.0) to the surface of a GLC biosensor chip at ˜5000 resonance units (RU) for each channel. The chimeric proteins in cell culture supernatant were injected and captured by anti-human or mouse polyclonal antibodies onto the GLC surface with a ˜200 RU response. […] The surface was regenerated twice by injecting glycine buffer (10 mM, pH 1.5) at 100 μL/min for 30 sec. All sensorgram data were processed with the ProteOn™ Manager 3.0.1 software.

Test [4] addresses T3, KO_276-285 (human; mouse, UniProt P70424 299-308).
T3 construct: domain: counterpart of human amino acids 276-285
The test is described as above. How it is done:
as §1, §2

The target of test [5] is KO_171-187 (human; mouse, UniProt P70424 194-210). Described as above. How it is done:
as §1, §2

The target of test [6] is T4, KO_159-162 (human; mouse, UniProt P70424 182-185).
T4 construct: domain: counterpart of human amino acids 159-162
The description is as above. On the procedure: as §1, §2

The target in test [7] is T5, KO_295-296 (human; mouse, UniProt P70424 318-319).
T5 construct: domain: counterpart of human amino acids 295-296
The description is as above. On the procedure:
as §1, §2

Test [8] addresses T6, human HER4 recombinant extracellular domain protein (human, UniProt Q15303 26-651).
T6 construct: extracellular domain
T6 sequence (looked up): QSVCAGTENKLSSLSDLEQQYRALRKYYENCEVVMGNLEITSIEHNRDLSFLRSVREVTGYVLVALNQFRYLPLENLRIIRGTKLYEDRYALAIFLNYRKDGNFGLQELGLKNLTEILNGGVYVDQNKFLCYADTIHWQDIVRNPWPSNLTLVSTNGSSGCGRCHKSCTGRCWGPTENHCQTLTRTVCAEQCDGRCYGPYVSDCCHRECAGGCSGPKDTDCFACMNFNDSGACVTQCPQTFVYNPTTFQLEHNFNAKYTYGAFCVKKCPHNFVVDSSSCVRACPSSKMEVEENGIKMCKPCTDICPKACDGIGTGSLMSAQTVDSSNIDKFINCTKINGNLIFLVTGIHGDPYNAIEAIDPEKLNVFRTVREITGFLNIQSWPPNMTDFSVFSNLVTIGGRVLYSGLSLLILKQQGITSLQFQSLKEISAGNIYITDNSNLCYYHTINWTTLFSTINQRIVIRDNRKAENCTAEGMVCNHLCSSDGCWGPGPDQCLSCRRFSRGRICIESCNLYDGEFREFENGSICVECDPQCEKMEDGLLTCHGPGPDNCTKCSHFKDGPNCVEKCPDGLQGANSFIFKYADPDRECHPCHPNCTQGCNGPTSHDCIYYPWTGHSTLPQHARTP
Put plainly: capture ELISA on coated recombinant extracellular domain protein. On the procedure: (§3) Antibody to be tested was prepared by diluting in a stepwise 1:3 serial dilution ranging from 50 nM down to 0.28 pM and then added to the wells in duplicate. After one hour of incubation, plates were washed, and goat anti-human IgG Fab HRP-conjugated secondary antibody was added to each well and the plates were incubated for 1 hour. The plates were washed and TMB substrate was added and incubated for 5-20 min to allow color development. The stop solution was added to the wells at the end of reaction and the plates were read at 450 nm. Binding signal (absorbance at 450 nm) was plotted against antibody concentration using Prism software.

Test [9] concerns the target T7, human EGFR recombinant extracellular domain protein (human, UniProt P00533 25-645).
T7 construct: extracellular domain
The test is described as above. How it is done: as §3

Test [10] has as its target T8, human HER3 recombinant extracellular domain protein (human, UniProt P21860 20-643).
T8 construct: extracellular domain
Described as above. How it is done:
as §3

Test [11] has as its target Human Her2 (control of Table 4) (human, UniProt P04626 23-652). As to the kind of experiment: SPR (ProteOn XPR36), human Her2 captured by anti-Her2 polyclonal antibody, 39S injected; apparent affinity. How it is done: as §1, §2
In test [12] the target is T9, KO_146-208 (human; mouse, UniProt P70424 169-231).
T9 construct: domain: counterpart of human amino acids 146-208
Put plainly: SPR (ProteOn XPR36), variant captured by anti-Her2 polyclonal antibody, 39S injected. On the procedure: as §1, §2

Test [13] addresses T10, KO_192-208 (human; mouse, UniProt P70424 215-231).
T10 construct: domain: counterpart of human amino acids 192-208
Described as above. On the procedure: as §1, §2

Test [14] deals with T11, human HER2 on cells (human, UniProt P04626 23-1255).
T11 construct: whole, on cells; also called HER2 on BT-474 cells; HER2 on T47D cells
As to the kind of experiment: FACS competition on BT-474 cells; competitor: fluorescently labelled 39S at 2 µg/mL; unlabelled antibody titrated. On the procedure: BT-474 cells were harvested, resuspended in FACS buffer, and 2.5×10⁵ cells/well were added to a 96-well U-bottom plate. […] After 1 hour of staining on ice, cells were washed 3 times with ice-cold FACS buffer and then fixed with 2% PFA. Cells were analyzed by a BD LSR II machine with BD FACSDiva™ software. Data were analyzed with FlowJo software and presented as mean MFI±SEM (n=3).

Test [15] concerns the target T12, mouse Her2 recombinant extracellular domain protein (mouse, UniProt P70424 23-653).
T12 construct: extracellular domain
As to the kind of experiment: capture ELISA on coated recombinant extracellular domain protein. How it is done: as §3
Background: ELISA stands for enzyme-linked immunosorbent assay.

B1: 39S antibody (antibody, V domains shown)
VH: EVQLVESGGGLVKPGGSLRLSCAASGFTFSSYSMSWVRQAPGKGLEWVSSISSSSSYIYYADSVKGRFTISRDNAKNSLYLQMNSLRAEDTAVYYCARGGDAYNYYYFDYWGQGTLVTVSS
VL: DIVMTQTPLSLSVTPGQPASISCKSSQSVFFRSNNKNILAWYLQKPGQPPQLLIYWASSRESGVPDRFSGSGSGTDFTLKISRVEAEDVGVYYCQQYFGSPFTFGPGTKVDIK
notes: also called lead optimized 39S antibody (LO); anti-HER2 mAb 39S
With B1, the “fold increase in binding affinity over the parental antibody (1.39.1)” value in [1] came to 2 fold. In addition, the Kd in test [2] is around 1 nM; in test [3] it was 0.187 nM; in [4] it was 0.106 nM; in [5], 0.038 nM; in [6] it was 0.101 nM; in test [7], 0.0847 nM. For the same molecule, the Kd in test [11] was found to be 0.084 nM. For the same molecule, the binding result is on record as “no binding (tested: 50 nM (highest concentration tested))” in test [8]; “no binding (tested: 50 nM (highest concentration tested))” in [9]; “no binding (tested: 50 nM (highest concentration tested))” in test [10]; “no binding” in test [12]; “no binding” in test [13]. For the same molecule, the “IC50 (read off the curve)” value in test [14] is around 3 µg/mL.

B2: AZ1.39.1 (antibody, V domains shown)
VH: B1 VH with S35N, A102G
VL: DIVMTQSPDSLAVSLGERATITCKSSQSVFFRSNNKNCLAWYQQRPGQPPNLLIYWASSRESGVPDRFSGSGSGTDFALTISSLQTEDVAVYYCQQYFGSPFTFGPGTKVDIK
With B2, the binding result in test [15], in test [8], in test [9] and in test [10] was “no binding” in each case. The “IC50 (read off the curve)” value in test [14] was around 5 µg/mL.
